Test results reported in article PMC11407943, “Cdc14 phosphatases use an intramolecular pseudosubstrate motif to stimulate and regulate catalysis” (The Journal of Biological Chemistry, 2024).

Test system: T1, Cc1cc(=O)oc2c(F)c(OP(=O)(O)O)c(F)cc12
T1 construct: codons 1-411; N-terminal GST; expressed in E. coli
Format: biochemical
Details: pH 7.5; 30.0 °C
Text: Enzym e kcat (sec-1) KM (µM)

## hCdc14B^3A (Homo sapiens; K435A/L431A/R432A)
  Km: 1.68 µM
